Measured values published in patent publication US9206246B2, “Heparin/heparan sulfate-dependent inhibitors of activated protein C and uses thereof in treating hemophilic disorders” (Academia Sinica, priority 2012, dated 2015).
Entries after “also recorded” stand apart in the source; their conditions may differ.

Columns and labels:
[1] = molecular target: T1, human activated protein C (Homo sapiens, UniProt P04070); experiment: Inhibition of APC amidolytic activity (Spectrozyme PCa chromogenic substrate); type: biochemical; details: for enhancement of APC inhibition by heparan sulfate chain: 10 μg/ml, APC and DrKIn-I 20 nM each; for Hill slope of dose-response curve / IC50: APC 10 nM
T1 construct: purchased Haematologic Technologies
Method: (§1) B: Dose-response curves of APC (10 nM) inhibition by DrKIn-I in the absence (◯) and presence (●) of 0.1 U/ml heparin. C: To determine the minimum concentration of heparin required for the potentiation APC inhibition, the activity of APC (20 nM) was measured after the addition of DrKIn-I (20 nM) and varying concentrations of heparin (0-1000 mU/ml). D: To assess the ability of heparan sulfate and the minimum length of heparan sulfate required to potentiate DrKIn-I-mediated APC inhibition, the amidolytic activity of APC was determined in the presence of DrKIn-I (20 nM) and different lengths of heparan sulfate chains (10 μg/ml each). E, Time course of FVa inactivation by APC (1 nM) was assessed in the absence (●) or presence (▪) of 5 nM DrKIn-I, or in the presence of 5 nM DrKIn-I supplemented with 0.1 U/ml heparin (▴), as described in “Materials and methods”. F, The effect of DrKIn-I (0-250 nM) and/or heparin (0.1 U/ml) on APC-mediated FVa inactivation was determined after 10 minutes of incubation at 37° C. with APC (5 nM). Results shown are means±SD of three experiments.
All inhibition assays were performed in 96-wells microtiter plates in 25 mM Tris-HCl (pH 7.4), 150 mM NaCl, 2.5 mM CaCl2 and 5 mg/ml BSA. For comparison between DrKIn-I and DrKIn-II, the amidolytic activity of 10 nM APC, with or without 0.1 U/ml heparin, was assayed in the presence or absence of equal molar concentrations of DrKIn-I or DrKIn-II. Immediately after the addition of APC, Spectrozyme PCa was added and the rates of p-nitroaniline release were monitored at 405 nm for 10 minutes at 37° C. For dose response curves, APC was mixed with different concentrations of DrKIn-I in the presence or absence of heparin. The final concentrations were as follows: APC (10 nM), heparin (0.1 U/ml) and DrKIn-I (0-100 nM in the presence of heparin and 0-12800 nM in the absence of heparin). Dose-response curves were fitted using GraphPad Prism (GraphPad Software). In other inhibition experiments, varying concentrations of heparin ([…]) or different lengths of heparan sulfate chains (10 μg/ml) were added to equimolar concentrations of APC and DrKIn-I (20 nM each). In all the inhibition experiments, Spectrozyme PCa was added to a final concentration of 0.2 mM. Changes in absorbance were measured using SpectraMax M2^e Microplate Reader (Molecular Devices).

[2] = molecular target: APC (Homo sapiens, UniProt P04070); experiment: APC-mediated FVa inactivation assay (residual FVa activity, prothrombin time-based); type: biochemical; design: purchased Haematologic Technologies
Method: as §1
In assays involving FVa, 20 nM purified FVa was incubated at 37° C. with a mixture containing 1 nM or 5 nM APC, 20 nM protein S, 20 μM DOPC/DOPS (75:25) and 5-250 nM DrKIn-I in the presence or absence of 0.1 U/ml heparin. At specific time intervals, 5 μl aliquots were removed and mixed with 50 μl of FV-deficient plasma. The residual FVa activities were quantified in a standard prothrombin time-based assay using a calibration curved obtained by adding variable amounts of FVa to FV-deficient plasma. All concentrations given were final concentrations.

[3] = in the presence of 0.1 U/ml heparin

T1 sequence (P04070 212-450 limits assumed): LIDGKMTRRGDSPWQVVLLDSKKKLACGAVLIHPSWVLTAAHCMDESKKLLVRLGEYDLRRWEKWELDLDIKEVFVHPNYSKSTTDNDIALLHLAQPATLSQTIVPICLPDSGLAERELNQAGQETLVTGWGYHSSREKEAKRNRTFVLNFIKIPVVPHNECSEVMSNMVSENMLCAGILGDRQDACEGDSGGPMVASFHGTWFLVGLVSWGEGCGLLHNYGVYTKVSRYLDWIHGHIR
T1 sequence (P04070 43-197 limits assumed): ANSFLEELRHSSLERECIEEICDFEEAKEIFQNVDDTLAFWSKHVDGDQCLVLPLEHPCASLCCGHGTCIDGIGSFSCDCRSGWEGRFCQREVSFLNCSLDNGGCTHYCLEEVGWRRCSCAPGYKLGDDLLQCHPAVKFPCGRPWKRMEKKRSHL
Chain of APC (P04070 212-450 limits assumed): as the sequence (P04070 212-450 limits assumed) above
Chain of APC (P04070 43-197 limits assumed): as the sequence (P04070 43-197 limits assumed) above

## DrKIn-I (CGGNDNNFETRKKCRQTCGAPRKGRPT)
[1]; 10 nM inhibitor, 10 nM APC, no heparin
  inhibitory activity against APC in the absence of heparin: little inhibitory activity against APC
[1]; 0.01 U/ml heparin, APC 20 nM, DrKIn-I 20 nM
  potentiation of APC inhibition by heparin: more than 70%
[1]; 0.1 U/ml heparin, APC 20 nM, DrKIn-I 20 nM
  APC activity: no APC activity was detectable
[1]; equimolar inhibitor and APC (10 nM each), 0.1 U/ml heparin, Spectrozyme PCa 0.2 mM
  decrease of APC activity (inhibition of APC amidolytic activity): 100%
[1]; heparan sulfate of 2 disaccharide units
  enhancement of APC inhibition by heparan sulfate chain: ~25%
[1]; heparan sulfate of one disaccharide unit
  enhancement of APC inhibition by heparan sulfate chain: ~10%
[1]; in the absence of heparin
  Hill slope of dose-response curve: −0.85±0.02
  IC50: 88.9 ± 1 nM
[1]; [3]
  Hill slope of dose-response curve: −3.64±0.30
  IC50: 3.5 ± 0.2 nM
[1]; with vs without heparin
  reduction of IC50 by heparin: 25 fold
[2]; 5 nM DrKIn-I with 0.1 U/ml heparin, APC 1 nM, FVa 20 nM
  FVa protected from inactivation: 100%
[2]; 250 nM DrKIn-I (50-fold molar excess) without heparin, APC 5 nM, 10 minutes
  FVa protected from inactivation: less than 20%
[2]; without heparin (5 nM DrKIn-I, APC 1 nM, FVa 20 nM)
  effect on APC-mediated FVa degradation: relatively no effect on APC activity; also recorded: negligible
